This passage reports IC50 results from patent US20250002563A1 (UNIVERSITY OF PITTSBURGH OF THE COMMONWEALTH SYSTEM OF …, published 2025).

Assay [1] deals with RBDSARS-CoV-2 (SARS-CoV-2 S protein residues 319-539, C-terminal His-tag) (SARS-CoV-2, UniProt P0DTC2 319-539). Briefly: ELISA. In general terms: In an ELISA, binding on a coated surface is turned into a signal by an enzyme label.
For assay [2], the target named is RBDSARS-CoV (SARS-CoV S protein residues 318-510, C-terminal His-tag) (SARS-CoV, UniProt P59594 318-510). Briefly: ELISA.

Changes are numbered by the printed parent chain.

B1: 5p-176 (VHH)
VHH: EVQLVESGGRLVQAGGSLRLSCAASGRTFSTYTMAWFRQAPGKEREFVAGIARNGDTAYYSDSVKGRFTISRDNAKNEVSLQMNSLKPEDTAVYTCAARSVVQLEVVLNNPIHFEYWGQGTQVTVSS
Usually IC50 stands for the concentration that gives 50% inhibition. As to B1, the IC50 in assay [1] and in assay [2] was less than 10 nM in each case.

B2: 4P-28 (VHH)
VHH: QVQLVESGGGLVQAGGSLRLSCAASGRTFSHYPTGWFRQAPGKEREFVSTISESGTSTYYADSVKGRFTISRDNAKNSVYLQMNSLKPEDTALYYCAADTAGRTQYGSSWSTLDGFVYWGQGTQVTVSS
Take B2: the IC50 in assay [1] was in the range of 10 to 100 nM; in assay [2] it was 1000 to 8000 nM.

B3: 5p-10 (VHH)
VHH: QVQLVESGGGLVQAGGSLRLSCAASGRTFSSSAMGWFRQAPGKDREFVAAISPSSTNTGYTDSVKGRFTISRDNTKNTVDLQMNNLKPEDTAIYYCAADANSLRYGYSQNQGRYEYWGQGTQVTVSS
In the case of B3, the IC50 is less than 10 nM in assay [1] and 10 to 100 nM in assay [2].

B4: 4P-26 (VHH)
VHH: QVQLVESGGGLVQAGGSLRLSCAASGDTLRSYNMGWFRQAPGKEREFVAVISWTGVGTYYGDSVKGRFTISRDVIKNTLYLQMDSLKPEDTAIYYCAADSTTYRLHSAGSDYLYWGQGTQVTVSS
Regarding B4, the IC50 in assay [1] is less than 10 nM; in assay [2] it was more than 8000 nM.

B5: 5p-171 (VHH)
VHH: QVQLVESGGGLVQTGGSLRLSCAASGRTFSTYTMGWFRQAPGKEREFVAAITPTGYGTKSADSVKGRFIISRDNPKNTVYLQMNNLKPEDTAVYYCAARSGTITNQDQYDFHYWGQGTQVTVSS
On to B5, for which the results for the IC50 in assay [1] and in assay [2] were less than 10 nM and 10 to 100 nM, respectively.

B6: 4P-19 (VHH)
VHH: HVQLVESGGGLVQAGGSLRLSCAASGRTVSSEFMGWFRQAPGKEREFVAAITWDGGSTYYTDSVKGRFTISRDNAKNTVYLQMNSLKPEDTAVYYCAADRSIFQSYYSAKYPNNYEYWGQGTQVTVSS
Take B6: the IC50 in assay [1] is less than 10 nM; in assay [2], 100 to 1000 nM.

B7: 4P-10 (VHH)
VHH: HVQLVESGGGLVQAGDSLRLSCTASGRTFSAYGMGWFRQAPGKEREFVAGIARSGSEYYGDSVKGRFTISRDNAKNTVYLQMASLKAEDTGVYYCAADPTILYHAISQRTQNYRYWGPGTQVTVSS
For the molecule B7, the values for the IC50 in assay [1] and in assay [2] were less than 10 nM and 100 to 1000 nM, respectively.

B8: 5p-24 (VHH)
VHH: DVQLVESGGGLVQAGDSLRLSCTASGLTFSAYGMGWFRQAPGKEREFVAGIARSGSEFYGDSVKGRFTISRDNAKNTVYLQVNSLRPEDTALYYCAADRTILYHAISQRTQNYQYWGPGTQVTVSS
On to B8, for which the IC50 in assay [1] and in assay [2] was less than 10 nM each time.

B9: 4P-9 (VHH)
VHH: B7 VHH with H1Q, Y115H
In the case of B9, the IC50 in assay [1] is less than 10 nM; in assay [2] it was 100 to 1000 nM.

B10: 5p-6 (VHH)
VHH: DVQLVESGGGLVQAGGSLRLSCAASGSTFSGNAIGWYRQAPGKQRELVATINAPGSTDYAESVKGRFTISRDNAKNTVFLQMNSLKPEDTAVYYCNVCKFLLSVLCHPGQDYWGQGTQVTVSS
For the molecule B10, the values for the IC50 in assay [1] and in assay [2] were less than 10 nM and 10 to 100 nM, respectively.

B11: 4P-21 (VHH)
VHH: HVQLVESGGGLAQAGGNLRLSCAASGGTFSDYAMGWFRRPPGKEREFVAAISRGGSTFYADSVKGRFTISRDNAKNTVYLQMTSLKPEDTAVYYCAADRSPLFFGVPRSHGEYDYWGQGTQVTVSS
In the case of B11, the half-maximal inhibitory concentration (IC50) in assay [1] and in assay [2] was less than 10 nM throughout.

B12: 5p-179 (VHH)
VHH: HVQLVESGGGLVQAGGSLRLSCAASGTISTLNAMGWYRQAPGKQRELLASISNLGTTYHADSVAGRFTISRGSAKNTVNLQMNSLKPDDTAVYYCNTRVLEGGTQIRDYWGQGTQVTVSS
notes: class IV psNb
In the case of B12, the IC50 in assay [1] was less than 10 nM; in assay [2], more than 8000 nM.

B13: 5p-174 (VHH)
VHH: HVQLVESGGGLVQTGASLRLSCKASGRTFSTYTISWFRQAPGKEREFVGGVATSGGTTYYGDSVQGRFTISRDNAKNEVYLQMNSVKPEDTAVYICAARSVIQDTVVISNPIHFEYWGQGTQVTVSS
Take B13: the IC50 in assay [1] and in assay [2] was less than 10 nM each time.

B14: 4P-17 (VHH)
VHH: HVQLVESGGGLVQAGASLRLSCAASGRTASNYVMGWFRQAAGKEREFVAHISWSGDETNYADSVRGRFIISRDNAENTVYLQMNSLKPEDTAVYYCAADRGYSLMYYSSREYTYWGQGTQVTVSS
For the molecule B14, the IC50 was less than 10 nM in assay [1] and 1000 to 8000 nM in assay [2].

B15: 5p-180 (VHH)
VHH: QVQLVESGGGLVQAGGSLRLSCVASGTISTLNAMGWYRQAPGKQRELLTSISNLGTTYSADSVKGRFTISRGNAKNTVYLQMDSLKPDDTAVYYCNTRVLEGTEYRDYWGQGTQVTVSS
Regarding B15, the figures for the IC50 in assay [1] and in assay [2] were less than 10 nM and more than 8000 nM, respectively.

B16: 5p-16 (VHH)
VHH: DVQLVESGGGLVQAGGSLRLSCLASGRTFSNYAMAWFRQSPGKEREFVAVITSGRSTDYADSVKGRFTISRDNAKNTVYLQMNSLKPEDTAVYYCAADQAPLRFSYSLSRDKYDYWGQGTQVTVSS
As to B16, the IC50 in assay [1] was less than 10 nM; in assay [2] it was 10 to 100 nM.

B17: 4P-12 (VHH)
VHH: B16 VHH with L23A, N31S, A33T, A35G, S40A, T52S, K112E
Take B17: the IC50 in assay [1] was less than 10 nM; in assay [2] it was 10 to 100 nM.

B18: 5p-17 (VHH)
VHH: B16 VHH with D1Q, L20V, L23A, T28S, N31D, A100T
In the case of B18, the IC50 in assay [1] and in assay [2] was less than 10 nM each time.

B19: 4P-86 (VHH)
VHH: DVQLVESGGGLVQAGGSLRLSCAVSGRTVSTYGMAWFRQAPGKEREFVATITRSEGTTFYADSVKGRFTISRDNAKNTVYLQMNSLKIEDTAVYYCAVRRDSSWGYSRDSFEYDDWGQGTQVTVSS
With B19, the IC50 in assay [1] and in assay [2] was less than 10 nM each time.

B20: 5p-169 (VHH)
VHH: DVQLVESGGGLVQAGGSLRLSCLVSGLTFSTYGMGWFRQAPGKEREFVAQITRSGSPTLYADSVKGRFTISRDNAKNTMYLQMNSLKIEDTAVYYCAVRRDSSWGYSRDSFEYDYWGQGTQVTVSS
Consider B20, for which the IC50 in assay [1] and in assay [2] was less than 10 nM throughout.

B21: 4P-3 (VHH)
VHH: DVQLVESGGGLVQAGDSLRLSCAASGRTFGNYVLDWFRQAPGKEREFVASITQTGFGTYYADAVKGRFTISRDNAKNTMYLQMNSLKPEDTAVYYCAADFTAQNGGIRNPTYWGQGTQVTVSS
For B21, the IC50 was 10 to 100 nM in assay [1] and 1000 to 8000 nM in assay [2].

B22: 4P-5 (VHH)
VHH: B21 VHH with D16G, A102V
In the case of B22, the IC50 in assay [1] was in the range of 10 to 100 nM; in assay [2] it was 100 to 1000 nM.

B23: 4P-4 (VHH)
VHH: B21 VHH with G105R, N109I, T111R
On to B23, for which the IC50 was in the range of 10 to 100 nM in assay [1] and 100 to 1000 nM in assay [2].
